Results from patent US20190284293A1 (Bristol-Myers Squibb, published 2019).
Values joined by “and” are separate entries in the source; they are usually repeats but may differ in a detail not shown here. Equal entries are not always repeated.

T1: N-hCD73-his (N-terminal domain of human CD73, residues 26-336, His tag) (human, UniProt P21589 26-336)
T1 sequence: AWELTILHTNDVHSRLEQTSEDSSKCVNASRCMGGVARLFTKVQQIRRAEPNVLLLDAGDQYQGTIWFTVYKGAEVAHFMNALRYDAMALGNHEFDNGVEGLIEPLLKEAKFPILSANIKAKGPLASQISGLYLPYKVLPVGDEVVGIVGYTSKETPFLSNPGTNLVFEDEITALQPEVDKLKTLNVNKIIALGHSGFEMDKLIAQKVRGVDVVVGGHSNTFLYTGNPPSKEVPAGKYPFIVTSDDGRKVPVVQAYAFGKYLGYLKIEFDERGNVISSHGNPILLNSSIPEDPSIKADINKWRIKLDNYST


Key:
[1] = biological target: T1, N-hCD73-his (N-terminal domain of human …); assay: SPR, mAb captured on protein A
Protocol: (§1) For these experiments, protein A (Pierce) was immobilized to a density of 3000-4000 RU on flow cells 1-4 of a CM5 sensor chip (GE Healthcare) using standard ethyl(dimethylaminopropyl) carbodiimide (EDC)/N-hydroxysuccinimide […] chemistry, with ethanolamine blocking, in a running buffer of 0.01 M HEPES pH 7.4, 0.15 M NaCl, 3 mM EDTA, 0.005% v/v tween 20. […] The running buffer for the kinetic experiments was 10 mM sodium phosphate, 130 mM sodium chloride, 0.05% tween 20, pH 7.1. The surfaces were regenerated after each cycle using two 30 s pulses of 10 mM glycine pH 1.5 at a flow rate of 30 μl/min. Sensogram data was double-referenced and then fitted to a 1:1 Langmuir model using Biacore T100 evaluation software v2.0.4, to determine the association rate constant (ka), the dissociation rate constant (kd), and the equilibrium dissociation constant (KD).

[2] = biological target: T1, N-hCD73-his (N-terminal domain of human …); assay: SPR
[3] = biological target: T1, N-hCD73-his (N-terminal domain of human …); assay: SPR, comparison of all IgG2 molecules
Protocol: as §1

Binder | Kd [1] | koff [1] | kon [1] | Kd [2] | fold lower affinity than 11F11 or CD73.4 [3]
CD73.10-IgG2-C219S-IgG1.1f (antibody, also called CD73.10-IgG2CS-IgG1.1f; CD73.10-IgG2S-IgG1.1f) heavy: QVQLVESGGGVVQPGRSLRLSCAASGFTFSNYGMHWVRQAPGKGLEWVAVIWYDESNKYYPDSVKGRFTISRDNSKNTLYLQMNSLRAEDTAVYYCARGGSSWYPDSFDIWGQGTMVTVSSASTKGPSVFPLAPCSRSTSESTAALGCLVKDYFPEPVTVSWNSGALTSGVHTFPAVLQSSGLYSLSSVVTVPSSNFGTQTYTCNVDHKPSNTKVDKTVERKSCVECPPCPAPPVAGPSVFLFPPKPKDTLMISRTPEVTCVVVDVSHEDPEVKFNWYVDGVEVHNAKTKPREEQYNSTYRVVSVLTVLHQDWLNGKEYKCKVSNKALPSSIEKTISKAKGQPREPQVYTLPPSREEMTKNQVSLTCLVKGFYPSDIAVEWESNGQPENNYKTTPPVLDSDGSFFLYSKLTVDKSRWQQGNVFSCSVMHEALHNHYTQKSLSLSPG light: not shown | 5.7 nM and 6.8 nM | 0.0016 s⁻¹ and 0.0014 s⁻¹ | 230000 M⁻¹ s⁻¹ and 240000 M⁻¹ s⁻¹ | – | –
CD73.10-IgG2-C219S (antibody, also called CD73.10-IgG2CS; CD73.10-IgG2S) heavy: QVQLVESGGGVVQPGRSLRLSCAASGFTFSNYGMHWVRQAPGKGLEWVAVIWYDESNKYYPDSVKGRFTISRDNSKNTLYLQMNSLRAEDTAVYYCARGGSSWYPDSFDIWGQGTMVTVSSASTKGPSVFPLAPCSRSTSESTAALGCLVKDYFPEPVTVSWNSGALTSGVHTFPAVLQSSGLYSLSSVVTVPSSNFGTQTYTCNVDHKPSNTKVDKTVERKSCVECPPCPAPPVAGPSVFLFPPKPKDTLMISRTPEVTCVVVDVSHEDPEVQFNWYVDGVEVHNAKTKPREEQFNSTFRVVSVLTVVHQDWLNGKEYKCKVSNKGLPAPIEKTISKTKGQPREPQVYTLPPSREEMTKNQVSLTCLVKGFYPSDIAVEWESNGQPENNYKTTPPMLDSDGSFFLYSKLTVDKSRWQQGNVFSCSVMHEALHNHYTQKSLSLSPG light: not shown | 6.2 nM and 8.3 nM | 0.0014 s⁻¹ and 0.0018 s⁻¹ | 220000 M⁻¹ s⁻¹ | ~5 nM | ~10 fold
